Laboratory results from US6635431.

Legend:
[1] = target: α subunit of rat LSR (product of cDNA LSR-Rn-2097) (rat) (UniProt Q9WU74); assay: flotation of 35S-labelled in vitro translated LSR with 100 µg/ml LDL and 1 mM oleate, against no oleate
[2] = target: β subunit of rat LSR (product of cDNA LSR-Rn-1893) (rat) (UniProt Q9WU74); assay: as above
Sequence of β subunit of rat LSR (product of cDNA LSR-Rn-1893) (rat) (Q9WU74 other isoform, or with tags, fused parts or gaps limits assumed): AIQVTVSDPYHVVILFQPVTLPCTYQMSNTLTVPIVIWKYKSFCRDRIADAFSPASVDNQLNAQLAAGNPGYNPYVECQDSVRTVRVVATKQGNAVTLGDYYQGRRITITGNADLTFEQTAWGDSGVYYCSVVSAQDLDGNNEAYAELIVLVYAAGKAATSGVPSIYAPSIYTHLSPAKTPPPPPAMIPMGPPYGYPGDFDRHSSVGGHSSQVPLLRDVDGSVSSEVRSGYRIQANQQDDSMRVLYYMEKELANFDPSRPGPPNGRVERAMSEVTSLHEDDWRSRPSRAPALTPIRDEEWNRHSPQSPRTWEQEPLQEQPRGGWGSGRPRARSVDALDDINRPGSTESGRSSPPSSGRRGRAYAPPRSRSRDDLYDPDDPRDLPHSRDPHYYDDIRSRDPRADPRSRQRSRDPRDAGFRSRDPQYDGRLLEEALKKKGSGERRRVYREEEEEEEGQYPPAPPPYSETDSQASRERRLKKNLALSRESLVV

Sequence of α subunit of rat LSR (product of cDNA LSR-Rn-2097) (rat) (Q9WU74 36-593 limits assumed): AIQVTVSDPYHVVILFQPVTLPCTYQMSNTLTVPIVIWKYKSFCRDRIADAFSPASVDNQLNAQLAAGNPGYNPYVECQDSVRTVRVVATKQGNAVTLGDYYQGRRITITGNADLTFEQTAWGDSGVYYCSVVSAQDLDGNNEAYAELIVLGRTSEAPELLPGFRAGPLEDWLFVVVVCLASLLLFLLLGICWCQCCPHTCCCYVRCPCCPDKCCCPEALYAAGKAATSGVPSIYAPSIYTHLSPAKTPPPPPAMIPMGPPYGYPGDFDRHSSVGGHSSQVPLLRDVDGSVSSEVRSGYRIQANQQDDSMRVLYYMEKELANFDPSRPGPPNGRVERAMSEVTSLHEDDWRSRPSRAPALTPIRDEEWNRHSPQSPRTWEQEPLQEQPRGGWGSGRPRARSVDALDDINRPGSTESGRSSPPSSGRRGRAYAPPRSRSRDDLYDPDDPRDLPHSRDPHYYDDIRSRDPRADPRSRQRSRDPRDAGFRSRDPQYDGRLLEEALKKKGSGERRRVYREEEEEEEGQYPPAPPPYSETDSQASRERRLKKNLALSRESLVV

factor of increase of LDL binding by oleate [1]: 5 fold | factor of increase of LDL binding by oleate [2]: 2 fold
Substance: LDL (low-density lipoprotein, 1.025<d<1.055 g/ml) isolated from plasma of volunteers, P04114 28-4563
